Measured values taken from US20250002594A1 (SHANGHAI EPIMAB BIOTHERAPEUTICS, published 2025).

T1: recombinant human CD132 (human, UniProt P31785 23-262, limits assumed)
T1 construct: also called IL-2Rγ
T1 sequence (looked up): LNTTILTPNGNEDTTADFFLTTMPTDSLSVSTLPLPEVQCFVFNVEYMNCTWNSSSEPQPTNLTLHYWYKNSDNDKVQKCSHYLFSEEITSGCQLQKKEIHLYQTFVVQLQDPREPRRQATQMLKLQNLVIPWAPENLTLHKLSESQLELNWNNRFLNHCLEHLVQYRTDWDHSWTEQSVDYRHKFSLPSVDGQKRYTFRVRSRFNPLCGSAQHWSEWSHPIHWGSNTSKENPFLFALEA

T2: recombinant human CD122 (human, UniProt P14784 27-239, limits assumed)
T2 construct: also called IL-2Rβ
T2 sequence (looked up): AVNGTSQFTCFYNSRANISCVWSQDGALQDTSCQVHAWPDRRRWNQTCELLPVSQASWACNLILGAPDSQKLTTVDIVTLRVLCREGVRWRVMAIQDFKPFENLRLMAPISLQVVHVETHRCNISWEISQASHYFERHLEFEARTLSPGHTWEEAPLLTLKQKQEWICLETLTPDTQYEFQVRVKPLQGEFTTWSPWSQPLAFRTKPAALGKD


Experiments:
[1] = biological target: T1, recombinant human CD132; assay: GCI (WAVEsystem)
Experimental: (§1) Binding affinity and kinetics constants of humanized CD122/CD132 FIT-Ig were determined using a label-free biosensor on WAVEsystem (Creoptix AG, Switzerland) by grating-coupled interferometry (GCI). Briefly, a PCP WAVEchip (Creoptix AG) was pre-immobilized with goat anti-human IgG Fc antibody to a density of 3830 pg/mm² by amine coupling, and used to capture humanized CD122/CD132 FIT-Ig generated from Example 3.2.1 to a density of ˜90 pg/mm², then exposed to recombinant human/cyno CD122 or CD132 serially diluted (3× dilutions from 200 nM to […] for human CD122, human CD132 and cyno CD132, respectively; and from 1000 nM to 1.37 nM for cyno CD122) in 1X HBS-EP+ buffer (Cytiva, Cat No. BR100669) by injection at 60 μL/min for 250s to assess association, followed by 1200s dissociation. After each round of association and dissociation, WAVEchip surface was regenerated by subject to pH 1.5 Glycine-HCl buffer injection at 60 μL/min for 120s. Sensorgrams were recorded at 25° C., the data were analyzed on WAVEcontrol (Creoptix AG) and double referenced by subtracting the signals from blank injections and the reference channel. A Langmuir 1:1 model was used for data fitting.

[2] = biological target: T2, recombinant human CD122; assay: GCI (WAVEsystem)
Experimental: as §1

Row | binding result [1] | binding result [2] | Binder
1 | binds | binds | huFIT2019-86b-17 (bispecific antibody, human IgG1, kappa, L234A L235A) chain 1: not shown chain 2: EVQLVQSGAEVKKPGASVKVSCKASGYTFTDYVISWVRQATGQGLEWMGEIYPGDAQTYYNEMFKGRVTMTRDTSISTAYMELSSLRSEDTAVYYCARGSYTYDNYAMDFWGQGTTVTVSSASTKGPSVFPLAPSSKSTSGGTAALGCLVKDYFPEPVTVSWNSGALTSGVHTFPAVLQSSGLYSLSSVVTVPSSSLGTQTYICNVNHKPSNTKVDKKVEPKSC chain 3: not shown
2 | binds | binds | huFIT2019-86b-16 (bispecific antibody, human IgG1, kappa, L234A L235A) chain 1: not shown chain 2: EVQLVQSGAEVKKPGASVKVSCKASGYRFSDYVISWVKQATGQGLEWIGEIYPGDAQTYYNEMFKGRATLTADKSISTAYMELSSLRSEDTAVYFCARGSYTYDNYAMDFWGQGTTVTVSSASTKGPSVFPLAPSSKSTSGGTAALGCLVKDYFPEPVTVSWNSGALTSGVHTFPAVLQSSGLYSLSSVVTVPSSSLGTQTYICNVNHKPSNTKVDKKVEPKSC chain 3: not shown
3 | binds | binds | huFIT2019-86b-23 (bispecific antibody, human IgG1, kappa, L234A L235A) chain 1: not shown chain 2: EVQLVQSGAEVKKPGASVKVSCKASGYTFTDYVISWVRQATGQGLEWMGEIYPGDAQTYYNEMFKGRVTMTRDTSISTAYMELSSLRSEDTAVYYCARGSYTYDNYAMDFWGQGTTVTVSSASTKGPSVFPLAPSSKSTSGGTAALGCLVKDYFPEPVTVSWNSGALTSGVHTFPAVLQSSGLYSLSSVVTVPSSSLGTQTYICNVNHKPSNTKVDKKVEPKSC chain 3: not shown
4 | binds | binds | huFIT2019-86b-22 (bispecific antibody, human IgG1, kappa, L234A L235A) chain 1: not shown chain 2: EVQLVQSGAEVKKPGASVKVSCKASGYRFSDYVISWVKQATGQGLEWIGEIYPGDAQTYYNEMFKGRATLTADKSISTAYMELSSLRSEDTAVYFCARGSYTYDNYAMDFWGQGTTVTVSSASTKGPSVFPLAPSSKSTSGGTAALGCLVKDYFPEPVTVSWNSGALTSGVHTFPAVLQSSGLYSLSSVVTVPSSSLGTQTYICNVNHKPSNTKVDKKVEPKSC chain 3: not shown
5 | binds | binds | huFIT2019-86b-24 (bispecific antibody, human IgG1, kappa, L234A L235A) chain 1: not shown chain 2: EVQLVQSGAEVKKPGASVKVSCKASGYTFTDYVISWVRQATGQGLEWMGEIYPGDAQTYYNEMFKGRVTMTADTSISTAYMELSSLRSEDTAVYYCARGSYTYDNYAMDFWGQGTTVTVSSASTKGPSVFPLAPSSKSTSGGTAALGCLVKDYFPEPVTVSWNSGALTSGVHTFPAVLQSSGLYSLSSVVTVPSSSLGTQTYICNVNHKPSNTKVDKKVEPKSC chain 3: not shown
6 | binds | binds | huFIT2019-86b-14 (bispecific antibody, human IgG1, kappa, L234A L235A) chain 1: not shown chain 2: EVQLVQSGAEVKKPGASVKVSCKASGYTFTDYVISWVRQATGQGLEWMGEIYPGDAQTYYNEMFKGRVTLTADTSISTAYMELSSLRSEDTAVYYCARGSYTYDNYAMDFWGQGTTVTVSSASTKGPSVFPLAPSSKSTSGGTAALGCLVKDYFPEPVTVSWNSGALTSGVHTFPAVLQSSGLYSLSSVVTVPSSSLGTQTYICNVNHKPSNTKVDKKVEPKSC chain 3: not shown
7 | binds | binds | huFIT2019-86b-11 (bispecific antibody, human IgG1, kappa, L234A L235A) chain 1: not shown chain 2: EVQLVQSGAEVKKPGASVKVSCKASGYTFTDYVISWVRQATGQGLEWMGEIYPGDAQTYYNEMFKGRVTMTRDTSISTAYMELSSLRSEDTAVYYCARGSYTYDNYAMDFWGQGTTVTVSSASTKGPSVFPLAPSSKSTSGGTAALGCLVKDYFPEPVTVSWNSGALTSGVHTFPAVLQSSGLYSLSSVVTVPSSSLGTQTYICNVNHKPSNTKVDKKVEPKSC chain 3: not shown
8 | binds | binds | huFIT2019-86b-15 (bispecific antibody, human IgG1, kappa, L234A L235A) chain 1: not shown chain 2: EVQLVQSGAEVKKPGASVKVSCKASGYTFTDYVISWVKQATGQGLEWIGEIYPGDAQTYYNEMFKGRATLTADKSISTAYMELSSLRSEDTAVYYCARGSYTYDNYAMDFWGQGTTVTVSSASTKGPSVFPLAPSSKSTSGGTAALGCLVKDYFPEPVTVSWNSGALTSGVHTFPAVLQSSGLYSLSSVVTVPSSSLGTQTYICNVNHKPSNTKVDKKVEPKSC chain 3: not shown
9 | binds | binds | huFIT2019-86b-12 (bispecific antibody, human IgG1, kappa, L234A L235A) chain 1: not shown chain 2: EVQLVQSGAEVKKPGASVKVSCKASGYTFTDYVISWVRQATGQGLEWMGEIYPGDAQTYYNEMFKGRVTMTADTSISTAYMELSSLRSEDTAVYYCARGSYTYDNYAMDFWGQGTTVTVSSASTKGPSVFPLAPSSKSTSGGTAALGCLVKDYFPEPVTVSWNSGALTSGVHTFPAVLQSSGLYSLSSVVTVPSSSLGTQTYICNVNHKPSNTKVDKKVEPKSC chain 3: not shown
10 | binds | binds | huFIT2019-86b-19 (bispecific antibody, human IgG1, kappa, L234A L235A) chain 1: not shown chain 2: EVQLVQSGAEVKKPGASVKVSCKASGYRFSDYVISWVRQATGQGLEWMGEIYPGDAQTYYNEMFKGRVTMTADTSISTAYMELSSLRSEDTAVYYCARGSYTYDNYAMDFWGQGTTVTVSSASTKGPSVFPLAPSSKSTSGGTAALGCLVKDYFPEPVTVSWNSGALTSGVHTFPAVLQSSGLYSLSSVVTVPSSSLGTQTYICNVNHKPSNTKVDKKVEPKSC chain 3: not shown
11 | binds | binds | huFIT2019-86b-27 (bispecific antibody, human IgG1, kappa, L234A L235A) chain 1: not shown chain 2: EVQLVQSGAEVKKPGASVKVSCKASGYTFTDYVISWVKQATGQGLEWIGEIYPGDAQTYYNEMFKGRATLTADKSISTAYMELSSLRSEDTAVYYCARGSYTYDNYAMDFWGQGTTVTVSSASTKGPSVFPLAPSSKSTSGGTAALGCLVKDYFPEPVTVSWNSGALTSGVHTFPAVLQSSGLYSLSSVVTVPSSSLGTQTYICNVNHKPSNTKVDKKVEPKSC chain 3: not shown
12 | binds | binds | huFIT2019-86b-25 (bispecific antibody, human IgG1, kappa, L234A L235A) chain 1: not shown chain 2: EVQLVQSGAEVKKPGASVKVSCKASGYRFSDYVISWVRQATGQGLEWMGEIYPGDAQTYYNEMFKGRVTMTADTSISTAYMELSSLRSEDTAVYYCARGSYTYDNYAMDFWGQGTTVTVSSASTKGPSVFPLAPSSKSTSGGTAALGCLVKDYFPEPVTVSWNSGALTSGVHTFPAVLQSSGLYSLSSVVTVPSSSLGTQTYICNVNHKPSNTKVDKKVEPKSC chain 3: not shown
13 | binds | binds | huFIT2019-86b-20 (bispecific antibody, human IgG1, kappa, L234A L235A) chain 1: not shown chain 2: EVQLVQSGAEVKKPGASVKVSCKASGYTFTDYVISWVRQATGQGLEWMGEIYPGDAQTYYNEMFKGRVTLTADTSISTAYMELSSLRSEDTAVYYCARGSYTYDNYAMDFWGQGTTVTVSSASTKGPSVFPLAPSSKSTSGGTAALGCLVKDYFPEPVTVSWNSGALTSGVHTFPAVLQSSGLYSLSSVVTVPSSSLGTQTYICNVNHKPSNTKVDKKVEPKSC chain 3: not shown
14 | binds | binds | huFIT2019-86b-21 (bispecific antibody, human IgG1, kappa, L234A L235A) chain 1: not shown chain 2: EVQLVQSGAEVKKPGASVKVSCKASGYTFTDYVISWVKQATGQGLEWIGEIYPGDAQTYYNEMFKGRATLTADKSISTAYMELSSLRSEDTAVYYCARGSYTYDNYAMDFWGQGTTVTVSSASTKGPSVFPLAPSSKSTSGGTAALGCLVKDYFPEPVTVSWNSGALTSGVHTFPAVLQSSGLYSLSSVVTVPSSSLGTQTYICNVNHKPSNTKVDKKVEPKSC chain 3: not shown
15 | binds | binds | huFIT2019-86b-26 (bispecific antibody, human IgG1, kappa, L234A L235A) chain 1: not shown chain 2: EVQLVQSGAEVKKPGASVKVSCKASGYTFTDYVISWVRQATGQGLEWMGEIYPGDAQTYYNEMFKGRVTLTADTSISTAYMELSSLRSEDTAVYYCARGSYTYDNYAMDFWGQGTTVTVSSASTKGPSVFPLAPSSKSTSGGTAALGCLVKDYFPEPVTVSWNSGALTSGVHTFPAVLQSSGLYSLSSVVTVPSSSLGTQTYICNVNHKPSNTKVDKKVEPKSC chain 3: not shown
16 | binds | binds | huFIT2019-86b-13 (bispecific antibody, human IgG1, kappa, L234A L235A) chain 1: not shown chain 2: EVQLVQSGAEVKKPGASVKVSCKASGYRFSDYVISWVRQATGQGLEWMGEIYPGDAQTYYNEMFKGRVTMTADTSISTAYMELSSLRSEDTAVYYCARGSYTYDNYAMDFWGQGTTVTVSSASTKGPSVFPLAPSSKSTSGGTAALGCLVKDYFPEPVTVSWNSGALTSGVHTFPAVLQSSGLYSLSSVVTVPSSSLGTQTYICNVNHKPSNTKVDKKVEPKSC chain 3: not shown
17 | binds | binds | huFIT2019-86b-18 (bispecific antibody, human IgG1, kappa, L234A L235A) chain 1: not shown chain 2: EVQLVQSGAEVKKPGASVKVSCKASGYTFTDYVISWVRQATGQGLEWMGEIYPGDAQTYYNEMFKGRVTMTADTSISTAYMELSSLRSEDTAVYYCARGSYTYDNYAMDFWGQGTTVTVSSASTKGPSVFPLAPSSKSTSGGTAALGCLVKDYFPEPVTVSWNSGALTSGVHTFPAVLQSSGLYSLSSVVTVPSSSLGTQTYICNVNHKPSNTKVDKKVEPKSC chain 3: not shown
